These results are taken from patent publication US20170035908A1 (published 2017).

This assay concerns the target T1, PAM4 antigen (pancreatic cancer mucin, CaPan1 human pancreatic tumor).
T1 construct: also called CaPan1 Ag; CaPan1 antigens
As to the kind of experiment: ELISA on target mucin antigen (FIG. 9).

B1: humanized PAM4 antibody (antibody, V domains shown)
VH: QVQLQQSGAEVKKPGASVKVSCEASGYTFPSYVLHWVKQAPGQGLEWIGYINPYNDGTQYNEKFKGKATLTRDTSINTAYMELSRLRSDDTAVYYCARGFGGSYGFAYWGQGTLVTVSS
VL: DIQLTQSPSSLSASVGDRVTMTCSASSSVSSSYLYWYQQKPGKAPKLWIYSTSNLASGVPARFSGSGSGTDFTLTISSLQPEDSASYFCHQWNRYPYTFGGGTRLEIKR
notes: also called hPAM4; hPAM4 IgG
The EC50 is the concentration giving half of the maximal effect. A higher EC50 goes with weaker potency. In turn, B1 displayed a concentration giving a half-maximal response (EC50) of 1.31 nM.
